The values that follow come from IntAct's records for PubMed 16099979.

B1: Protein FD (Arabidopsis thaliana (Mouse-ear cress)), Q84JK2 (parent)
chain: MLSSAKHQRNHRLSATNKNQTLTKVSSISSSSPSSSSSSSSTSSSSPLPSQDSQAQKRSLVTMEEVWNDINLASIHHLNRHSPHPQHNHEPRFRGQNHHNQNPNSIFQDFLKGSLNQEPAPTSQTTGSAPNGDSTTVTVLYSSPFPPPATVLSLNSGAGFEFLDNQDPLVTSNSNLHTHHHLSNAHAFNTSFEALVPSSSFGKKRGQDSNEGSGNRRHKRMIKNRESAARSRARKQAYTNELELEVAHLQAENARLKRQQDQLKMAAAIQQPKKNTLQRSSTAPF

The variants in the assay derive from B1. The conditions noted are these: with ft_arath FT.
On to T282A, for which the “effect of a mutation on the interaction” value is recorded as “decreasing interaction”.
For the variant T282S, the “effect of a mutation on the interaction” value was “decreasing interaction”.
